Experiments:
CFP10 antigen [1] = biological target: T1, CFP10 antigen (Mycobacterium tuberculosis, UniProt P9WNK5 2-100); experiment: ELONA; no significant difference from aptamer-alone control; ELONA: antigen coated in 0.06 M carbonate pH 9.6, 3% BSA block, aptamer 2 h at room temperature, 0.01 M PBS washes; aptamer/electrode binding buffer 20 mM Tris-HCl pH 7.4, 150 mM NaCl, 2 mM MgCl2, 2 mM KCl, 2 mM CaCl2, room temperature; settings: protein: recombinant; label: biotin
MPT64 antigen [2] = biological target: T2, MPT64 antigen (Mycobacterium tuberculosis, UniProt P9WIN9 24-228); experiment: ELONA; 5 uM aptamer; antigen coated at 5 ug/mL; p < 0.0001 vs control; ELONA: antigen coated in 0.06 M carbonate pH 9.6, 3% BSA block, aptamer 2 h at room temperature, 0.01 M PBS washes; aptamer/electrode binding buffer 20 mM Tris-HCl pH 7.4, 150 mM NaCl, 2 mM MgCl2, 2 mM KCl, 2 mM CaCl2, room temperature; settings: protein: recombinant; label: biotin
T2 sequence (P9WIN9 24-228): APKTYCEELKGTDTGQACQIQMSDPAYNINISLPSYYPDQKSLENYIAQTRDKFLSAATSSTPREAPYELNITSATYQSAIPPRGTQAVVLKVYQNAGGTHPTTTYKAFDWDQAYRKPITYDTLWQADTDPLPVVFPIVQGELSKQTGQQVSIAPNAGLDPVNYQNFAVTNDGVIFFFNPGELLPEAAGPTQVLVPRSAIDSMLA

CFP10 antigen [3] = biological target: T1, CFP10 antigen; experiment: amperometric sandwich aptasensor; selectivity test; read-out also needs anti-MPT64 antibody; ELONA: antigen coated in 0.06 M carbonate pH 9.6, 3% BSA block, aptamer 2 h at room temperature, 0.01 M PBS washes; aptamer/electrode binding buffer 20 mM Tris-HCl pH 7.4, 150 mM NaCl, 2 mM MgCl2, 2 mM KCl, 2 mM CaCl2, room temperature; settings: protein: recombinant
MPT64 antigen [4] = biological target: T2, MPT64 antigen; experiment: amperometric sandwich aptasensor; HRP anti-MPT64 antibody detection; LOD 1.11 ng/mL, linear 5-200 ng/mL; ELONA: antigen coated in 0.06 M carbonate pH 9.6, 3% BSA block, aptamer 2 h at room temperature, 0.01 M PBS washes; aptamer/electrode binding buffer 20 mM Tris-HCl pH 7.4, 150 mM NaCl, 2 mM MgCl2, 2 mM KCl, 2 mM CaCl2, room temperature; settings: protein: recombinant

T1 sequence (P9WNK5 2-100): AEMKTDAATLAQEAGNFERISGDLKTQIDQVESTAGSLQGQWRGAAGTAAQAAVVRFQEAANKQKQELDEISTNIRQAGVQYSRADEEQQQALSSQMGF

TTTTTTTTTTGGGAGCTGATGTCGCATGGGTTTTGATCACATGA (ssDNA, biotin, position not stated) [MPT64 aptamer, biotinylated (ELONA)]: no binding (CFP10 antigen [1]); binds (MPT64 antigen [2]).

TTTTTTTTTTGGGAGCTGATGTCGCATGGGTTTTGATCACATGA (ssDNA, 5' AmMC6) [MPT64 aptamer, 5'-amino (electrode)]: no binding (CFP10 antigen [3]); binds (MPT64 antigen [4]).

From article PMC9329948, “Surface-Enhanced Carboxyphenyl Diazonium Functionalized Screen-Printed Carbon Electrode for the Screening of Tuberculosis in Sputum Samples”
